From patent US20210238289A1 (Biogen, published 2021) come the findings set out here.

Numbering of substitutions follows the chain as printed. Names and notes keep the numbering of the source.

A word on the IC50: it is the concentration that inhibits the measured activity by half.

To fix the notation:
B1: CN645 (hu5c8 IgG1 N297P, T299K) (antibody)
heavy: not shown
light: DIVLTQSPATLSVSPGERATISCRASQRVSSSTYSYMHWYQQKPGQPPKLLIKYASNLESGVPARFSGSGSGTDFTLTISSVEPEDFATYYCQHSWEIPPTFGGGTKLEIKRTVAAPSVFIFPPSDEQLKSGTASVVCLLNNFYPREAKVQWKVDNALQSGNSQESVTEQDSKDSTYSLSSTLTLSKADYEKHKVYACEVTHQGLSSPVTKSFNRGEC
B2: EAG2412 (hu5c8 S228P/N297Q, IgG4 CH1, IgG4 CH2, IgG1 CH3, aglycosylated) (antibody)
heavy: QVQLVQSGAEVVKPGASVKLSCKASGYIFTSYYMYWVKQAPGQGLEWIGEINPSNGDTNFNEKFKSKATLTVDKSASTAYMELSSLRSEDTAVYYCTRSDGRNDMDSWGQGTLVTVSSASTKGPSVFPLAPCSRSTSESTAALGCLVKDYFPEPVTVSWNSGALTSGVHTFPAVLQSSGLYSLSSVVTVPSSSLGTKTYTCNVDHKPSNTKVDKRVESKYGPPCPPCPAPEFLGGPSVFLFPPKPKDTLMISRTPEVTCVVVDVSQEDPEVQFNWYVDGVEVHNAKTKPREEQFQSTYRVVSVLTVLHQDWLNGKEYKCKVSNKGLPSSIEKTISKAKGQPREPQVYTLPPSRDELTKNQVSLTCLVKGFYPSDIAVEWESNGQPENNYKTTPPVLDSDGSFFLYSKLTVDKSRWQQGNVFSCSVMHEALHNHYTQKSLSLSP
light: B1 light
notes: also called N297Q IgG4-CH2/IgG1-CH3; copies: 2 + 2
B3: EAG2390 (hu5c8 IgG1 T299P) (antibody)
heavy: not shown
light: B1 light
B4: CN647 (hu5c8 IgG1 N297D, T299K) (antibody)
heavy: not shown
light: B1 light
B5: CN646 (hu5c8 IgG1 N297S, T299K) (antibody)
heavy: not shown
light: B1 light
B6: Chimeric HP1/2 (antibody, human IgG1, V domains shown)
VH: EVQLQQSGAELVKPGASVKLSCTASGFNIKDTYMHWVKQRPEQGLEWIGRIDPASGDTKYDPKFQVKATITADTSSNTAWLQLSSLTSEDTAVYYCADGMWVSTGYALDFWGQGTTVTVSS
VL: SIVMTQTPKFLLVSAGDRVTITCKASQSVTNDVAWYQQKPGQSPKLLIYYASNRYTGVPDRFTGSGYGTDFTFTISTVQAEDLAVYFCQQDYSSPYTFGGGTKLEIK
notes: also called chimerized HP1/2 antibody; chimeric mAb
B7: H1L1 (antibody, V domains shown)
VH: EVQLVQSGAEVKKPGATVKISCKASGFNIKDTYMHWVQQAPGKGLEWMGRIDPASGDTKYDPKFQVRVTITADTSTDTAYMELSSLRSEDTAVYYCADGMWVSTGYALDFWGQGTLVTVSS
VL: SIVMTQSPDSLAVSLGERATINCKASQSVTNDVAWYQQKPGQPPKLLIYYASNRYTGVPDRFSGSGSGTDFTLTISSLQAEDVAVYFCQQDYSSPYTFGQGTKVEIK
notes: also called Design H1 / Design L1
B8: H1L3 (antibody, V domains shown)
VH: B7 VH
VL: B7 VL with S67Y, L73F, V85T
notes: also called Design H1 / Design L3
B9: EAG2300 (hu5c8 IgG4 chimeric hinge + IgG1 CH3, glycosylated) (antibody)
heavy: QVQLVQSGAEVVKPGASVKLSCKASGYIFTSYYMYWVKQAPGQGLEWIGEINPSNGDTNFNEKFKSKATLTVDKSASTAYMELSSLRSEDTAVYYCTRSDGRNDMDSWGQGTLVTVSSASTKGPSVFPLAPCSRSTSESTAALGCLVKDYFPEPVTVSWNSGALTSGVHTFPAVLQSSGLYSLSSVVTVPSSSLGTKTYTCNVDHKPSNTKVDKRVESKYGPPCPPCPAPPVAGPSVFLFPPKPKDTLMISRTPEVTCVVVDVSQEDPEVQFNWYVDGVEVHNAKTKPREEQFNSTYRVVSVLTVLHQDWLNGKEYKCKVSNKGLPSSIEKTISKAKGQPREPQVYTLPPSRDELTKNQVSLTCLVKGFYPSDIAVEWESNGQPENNYKTTPPVLDSDGSFFLYSKLTVDKSRWQQGNVFSCSVMHEALHNHYTQKSLSLSPG
light: B1 light
modifications: N-terminal Q largely converted to pyroglutamic acid; N-linked G0F/G1F/G2F glycans (mass spectrometry)
notes: also called pEAG2300; copies: 2 + 2
B10: YC403 (hu5c8 IgG4.P S228P, T299A, T307P, L309K, D399S, aglycosylated) (antibody)
heavy: QVQLVQSGAEVVKPGASVKLSCKASGYIFTSYYMYWVKQAPGQGLEWIGEINPSNGDTNFNEKFKSKATLTVDKSASTAYMELSSLRSEDTAVYYCTRSDGRNDMDSWGQGTLVTVSSASTKGPSVFPLAPCSRSTSESTAALGCLVKDYFPEPVTVSWNSGALTSGVHTFPAVLQSSGLYSLSSVVTVPSSSLGTKTYTCNVDHKPSNTKVDKRVESKYGPPCPPCPAPEFLGGPSVFLFPPKPKDTLMISRTPEVTCVVVDVSQEDPEVQFNWYVDGVEVHNAKTKPREEQFNSAYRVVSVLPVKHQDWLNGKEYKCKVSNKGLPSSIEKTISKAKGQPREPQVYTLPPSQEEMTKNQVSLTCLVKGFYPSDIAVEWESNGQPENNYKTTPPVLSSDGSFFLYSRLTVDKSRWQEGNVFSCSVMHEALHNHYTQKSLSLSLG
light: B1 light
modifications: N-terminal Q largely converted to pyroglutamic acid (mass spectrometry)
notes: copies: 2 + 2
B11: IgG4.P T299A (aglycosylated hu5c8 IgG4.P S228P, T299A) (antibody)
heavy: not shown
light: B1 light
notes: also called agly IgG4.P; IgG4.P agly (S228P, T299A); copies: 2 + 2
B12: IgG1 T299A (aglycosylated hu5c8 IgG1) (antibody)
heavy: not shown
light: B1 light
notes: also called IgG1 agly (T299A); agly IgG1
B13: EC331 (hu5c8 IgG4.P T299K, T307P, IgG4 CH2/IgG1 CH3 chimera, aglycosylated) (antibody)
heavy: B10 heavy with A297K, K307L, Q353R, E354D, M356L, S397D, R407K, E417Q, L443P
light: B1 light
modifications: N-terminal Q largely converted to pyroglutamic acid (mass spectrometry)
notes: copies: 2 + 2
B14: YC401 (hu5c8 IgG4.P S228P, T299A, T307P, D399S, aglycosylated) (antibody)
heavy: B10 heavy with K307L
light: B1 light
modifications: N-terminal Q largely converted to pyroglutamic acid (mass spectrometry)
notes: copies: 2 + 2
B15: EAG2377 (hu5c8 IgG1 T299N) (antibody)
heavy: not shown
light: B1 light
B16: EAG2389 (hu5c8 IgG1 T299Q) (antibody)
heavy: not shown
light: B1 light
B17: EAG2378 (hu5c8 IgG1 T299R) (antibody)
heavy: not shown
light: B1 light
B18: EAG2380 (hu5c8 IgG1 T299F) (antibody)
heavy: not shown
light: B1 light
B19: EAG2379 (hu5c8 IgG1 T299E) (antibody)
heavy: not shown
light: B1 light

In one assay the target is T1, human C1q (human, UniProt P02745 23-245; P02746 28-253; P02747 29-245).
T1 construct: Bought protein; also called complement factor C1q; Sigma human C1q (C0660)
The assay can be described thus: C1q ELISA. On the procedure: The C1q binding assay was be performed by coating 96 well Maxisorb ELISA plates (Nalge-Nunc Rochester, N.Y., USA) with 50 μl recombinant soluble human CD40 ligand at 10 ug/ml overnight at 4° C. in PBS. The wells were aspirated and washed three times with wash buffer (PBS, 0.05% Tween 20) and blocked for 1 hour with 200 µl/well of block/diluent buffer (0.1 M Na2HP04, pH 7.0, 1 M NaCl, 0.05% Tween 20, 1% gelatin). The antibodies were diluted in block/diluent buffer with 3-fold dilutions and incubated for 2 hours at room temperature.
After aspirating and washing as above, 50 pll/well of sheep anti C1q (Serotec AHP033), diluted 3, 560-fold in block/diluent buffer, were added. After incubation for 1 h at room temperature, the wells were aspirated and washed as above. 50 pll/well of donkey anti-sheep IgG HRP conjugate (Jackson ImmunoResearch 713-035-147) diluted to 1:10,000 in block/diluent were then added, and the wells incubated for 1 h at room temperature.
After aspirating and washing as above, 100 all TMB substrate (420 plM TMB, 0.004% H2O2 in 0.1 M sodium acetate/citric acid buffer, pH 4.9) were added and incubated for 2 min before the reaction was stopped with 100 ul 2 N sulfuric acid. The absorbance was read at 450 nm with a Softmax PRO instrument, and Softmax software was used to determine the relative binding affinity (C value) with a 4-parameter fit.
(ELISA stands for enzyme-linked immunosorbent assay.)
Consider B1, for which the binding result is “no binding”.

B2: the binding result is listed as “no binding”.

B3: the binding result is listed as “no binding”.

Regarding B4, the binding result is “no binding”.

Turning to B5, the binding result is “no binding”.

A further assay has as its target T2, α4β1 (VLA-4) as used in the competition ELISAs (UniProt P13612 34-970; P05556 21-728). The assay can be described thus: competition ELISA; mixture of mouse HP1/2 with test mAb binding to integrin.
B6: the IC50 was determined as 0.00164 µM.

As for B7, the IC50 is 0.00455 µM.

The next assay concerns the target T2, α4β1 (VLA-4) as used in the competition …. Put plainly: competition ELISA; integrin preincubated with test mAb, then murine HP1/2 as competing reagent.
The molecule B6 came in with an IC50 of 0.00106 µM.

In the case of B7, the IC50 came out at 0.00167 µM.

On to B8, for which the IC50 is 0.00049 µM.

For the next assay, the target named is T3, CD64 (FcγRI) (UniProt P12314 16-288, limits assumed). The assay can be described thus: solution competition SPR (Biacore); construct titrated into receptor, free receptor read on immobilized IgG1 MAb. On the procedure:
(§1) Binding to Fcγ receptors was analyzed using solution affinity surface plasmon resonance (ref Day E S, Cachero T G, Qian F, Sun Y, Wen D, Pelletier M, Hsu Y M, Whitty A. Selectivity of BAFF/BLyS and APRIL for binding to the TNF family receptors BAFFR/BR3 and BCMA. Biochemistry. 2005 Feb. 15; 44(6):1919-31.) The method utilizes conditions of so-called “mass-transport-limited” binding, in which the initial rate of ligand binding (protein binding to the senor chip) is proportional to the concentration of ligand in solution (ref BIApplications Handbook (1994) Chapter 6: Concentration measurement, pp 6-1-6-10, Pharmacia Biosensor AB). Under these conditions, binding of the soluble analyte (protein flowing over chip surface) to the immobilized protein on the chip is fast compared to the diffusion of the analyte into the dextran matrix on the chip surface. Therefore, the diffusion properties of the analyte and the concentration of analyte in solution flowing over the chip surface determine the rate at which analyte binds to the chip. In this experiment, the concentration of free Fc receptor in solution is determined by the initial rate of binding to a CM5 Biacore chip containing an immobilized IgG1 MAb. Into these Fc receptor solutions were titrated the stability engineered constructs (see Table 10.1 below). […] Initial binding rates were obtained from raw sensorgram data (FIG. 14). […] The results are shown in Table 10.1 and reported as the average of two titrations.
For B9, the IC50 was found to be 3020 µM.

For B10, the IC50 is 434 µM.

Turning to B11, the IC50 turned out to be 739 µM.

As for B12, the IC50 was determined as 205 µM.

Molecule B13 gave an IC50 of 2600 µM.

The molecule B14 had an IC50 of 377 µM.

In a further assay the target is T3, CD64 (FcγRI). Put plainly: solution competition SPR (Biacore). The procedure:
as §1
(In general: In SPR one partner is held on a chip, and binding of the other changes the refractive index at the surface.)
The molecule B1 yielded an IC50 of 4390 µM.

On to B15, for which the IC50 was found to be 586 µM.

B16 displayed an IC50 of 455 µM.

The molecule B3 registered an IC50 of 392 µM.

For B17, the IC50 amounted to 5970 µM.

The molecule B18 displayed an IC50 of 345 µM.

B4 displayed an IC50 of 4480 µM.

On to B19, for which the IC50 was determined as 196 µM.

In turn, B5 gave an IC50 of 3160 µM.
